Residue numbers refer to the chain shown, from its start.
What was measured:
[1] = test system: T1, Pb2Cpf1 (Prevotella bryantii B14); assay: cell_activity; conditions: pea protoplasts, NGS; PAM TTTC per claims
T1 sequence: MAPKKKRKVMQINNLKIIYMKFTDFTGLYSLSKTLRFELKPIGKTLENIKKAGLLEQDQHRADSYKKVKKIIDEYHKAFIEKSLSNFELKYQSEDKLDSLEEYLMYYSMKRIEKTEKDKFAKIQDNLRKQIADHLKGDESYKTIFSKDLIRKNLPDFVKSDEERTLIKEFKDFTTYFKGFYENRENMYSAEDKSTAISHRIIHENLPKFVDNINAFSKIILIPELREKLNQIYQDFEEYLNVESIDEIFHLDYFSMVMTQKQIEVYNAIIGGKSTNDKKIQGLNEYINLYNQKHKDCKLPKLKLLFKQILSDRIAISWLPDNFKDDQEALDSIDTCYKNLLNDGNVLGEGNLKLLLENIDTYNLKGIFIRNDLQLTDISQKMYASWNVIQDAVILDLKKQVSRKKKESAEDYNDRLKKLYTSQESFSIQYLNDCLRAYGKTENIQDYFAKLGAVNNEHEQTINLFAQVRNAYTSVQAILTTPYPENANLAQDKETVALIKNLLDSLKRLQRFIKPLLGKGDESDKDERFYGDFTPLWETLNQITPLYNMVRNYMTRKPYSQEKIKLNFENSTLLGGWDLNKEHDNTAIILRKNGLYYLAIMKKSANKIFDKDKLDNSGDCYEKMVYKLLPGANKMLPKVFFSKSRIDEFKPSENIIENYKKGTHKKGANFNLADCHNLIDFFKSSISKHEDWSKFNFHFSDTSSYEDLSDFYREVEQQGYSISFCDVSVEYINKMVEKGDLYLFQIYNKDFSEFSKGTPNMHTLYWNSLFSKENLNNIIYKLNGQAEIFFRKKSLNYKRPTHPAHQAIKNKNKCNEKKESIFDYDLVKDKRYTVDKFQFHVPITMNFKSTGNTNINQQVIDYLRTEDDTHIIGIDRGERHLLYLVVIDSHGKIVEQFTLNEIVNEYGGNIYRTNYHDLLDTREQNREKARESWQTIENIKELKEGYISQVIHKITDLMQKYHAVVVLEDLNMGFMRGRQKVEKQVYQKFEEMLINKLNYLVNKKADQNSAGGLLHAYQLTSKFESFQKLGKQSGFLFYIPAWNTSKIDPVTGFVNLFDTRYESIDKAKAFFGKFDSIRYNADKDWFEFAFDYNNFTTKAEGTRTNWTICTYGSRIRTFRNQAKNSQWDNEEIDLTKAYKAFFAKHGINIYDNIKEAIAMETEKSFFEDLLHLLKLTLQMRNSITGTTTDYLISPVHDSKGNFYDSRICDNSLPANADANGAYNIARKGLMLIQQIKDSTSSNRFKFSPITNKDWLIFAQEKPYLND

[2] = test system: T2, Pb2Cpf1 E173R (Prevotella bryantii B14); assay: cell_activity; conditions: pea protoplasts, NGS; PAM TTTC per claims
T2 sequence: T1 sequence with E182R

## PsLOX2 guide RNA (plasmid 133806, MtU6 promoter; plasmid sequence given) ; PsLOX2 genomic target
[1]
  activity: 0.32 % editing
[2]
  activity: 0.88 % editing
